The results in this text go back to publication PMC8202958 (Cell reports, 2021).

Assay [1] concerns the target T1, MBP-Ecm25-N-term+RhoGAP (1–360aa) (S. cerevisiae, UniProt P32525 1-360).
T1 sequence (looked up): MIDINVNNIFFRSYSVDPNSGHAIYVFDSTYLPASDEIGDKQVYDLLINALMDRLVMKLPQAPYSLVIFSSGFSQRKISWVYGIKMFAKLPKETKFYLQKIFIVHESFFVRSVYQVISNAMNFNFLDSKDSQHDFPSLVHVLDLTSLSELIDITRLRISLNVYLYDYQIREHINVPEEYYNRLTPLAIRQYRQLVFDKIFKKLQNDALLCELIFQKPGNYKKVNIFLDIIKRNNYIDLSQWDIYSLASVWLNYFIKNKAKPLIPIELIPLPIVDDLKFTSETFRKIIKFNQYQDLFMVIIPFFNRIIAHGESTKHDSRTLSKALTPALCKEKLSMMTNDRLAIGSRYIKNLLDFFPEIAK
The assay can be described thus: pull-down.

Assay [2] concerns the target T2, MBP-Ecm25-FL (full length, 1–599aa) (S. cerevisiae, UniProt P32525 1-599).
T2 sequence (looked up): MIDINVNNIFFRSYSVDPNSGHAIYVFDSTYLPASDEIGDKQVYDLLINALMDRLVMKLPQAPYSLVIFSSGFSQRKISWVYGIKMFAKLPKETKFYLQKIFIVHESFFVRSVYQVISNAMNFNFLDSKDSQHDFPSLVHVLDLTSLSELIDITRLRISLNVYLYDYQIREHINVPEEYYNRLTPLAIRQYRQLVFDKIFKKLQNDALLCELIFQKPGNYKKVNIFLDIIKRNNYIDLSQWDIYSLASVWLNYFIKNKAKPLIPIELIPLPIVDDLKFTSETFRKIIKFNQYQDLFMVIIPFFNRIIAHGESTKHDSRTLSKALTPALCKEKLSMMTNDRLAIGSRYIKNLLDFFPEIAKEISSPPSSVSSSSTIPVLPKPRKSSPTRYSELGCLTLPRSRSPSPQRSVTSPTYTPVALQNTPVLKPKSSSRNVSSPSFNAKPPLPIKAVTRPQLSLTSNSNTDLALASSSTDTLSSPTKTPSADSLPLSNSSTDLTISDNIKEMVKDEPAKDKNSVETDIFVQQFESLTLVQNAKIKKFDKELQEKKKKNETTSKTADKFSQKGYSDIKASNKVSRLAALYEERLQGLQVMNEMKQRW
The assay can be described thus: pull-down.

B1: GST-Cdc42 (natural protein)
chain: not shown
Regarding B1, in assay [1], the binding result is “binds”.

B2: GST-Cdc42(T17N) (natural protein)
chain: not shown
B2: the binding result in assay [1] is given as “binds”.

B3: GST-Lsb3 (natural protein, S. cerevisiae, UniProt P43603 1-459, looked up)
chain: MGINNPIPRSLKSETKKAAKILASFVKPNQVFGADQVIPPDVLKRAKGLAIITILKAGFLFSGRAGSGVIVARLKDGTWSAPSAIAMAGAGAGGMVGIELTDFVFILNTQDAVKSFSEFGTITLGGNVSVSAGPLGRSAEAAASASAGGVAAVFAYSKSKGLFAGVSVEGSAIIERREANRKFYGDNCTAKMILSGRIRPPPAVDPLFRVLESRAFNYRPSNGGRGSFDDDEDDYYDDDDYYNDIPSSFSSTDASSTRPNTRSTRRRAQSGSRYTFDDDDDDDDYGTGYSRNSRLAPTNSGGSGGKLDDPSGASSYYASHRRSGTAQSRARSSRNRWADDEYDDYDDDYESGYRRGNGRDRTKDREVDDLSNRFSKSRISSASTPQTSQGRFTAPTSPSTSSPKAVALYSFAGEESGDLPFRKGDVITILKKSDSQNDWWTGRVNGREGIFPANYVELV
For the molecule B3, in assay [2], the binding result is on record as “binds”.

B4: GST-Ysc84 (natural protein, S. cerevisiae, UniProt P32793 1-468, looked up)
chain: MGINNPIPRSLKSETKKAAKVLRSFVKPNQVFGADQVIPPYVLKRAKGLAIITVLKAGFLFSGRAGSGVIVARLKDGTWSAPSAIAMAGAGAGGMVGVELTDFVFILNSEEAVRSFSEFGTITLGGNVSVSAGPLGRSAEAAASASTGGVSAVFAYSKSKGLFAGVSVEGSAILERREANRKFYGDNCTSKMILSGRVKVPPAADPLLRILESRAFNFTRHDHDDNASGDDFYDDGQYSDNTSHYYDDIPDSFDSTDESSTRPNTRSSRRRGMSLGSRSRYDDDYDDDGYGRGRGYGDFDSEDEDYDYGRSPNRNSSRNRGPQIDRGTKPRANTRWEDDLYDRDTEYSRPNHSGRDYDNTRGNRRGYGRERGYSLGHGPTHPSNMSNVDDLSHKMSKTGLGNESTATNSATPTAVALYNFAGEQPGDLAFKKGDVITILKKSDSQNDWWTGRTNGKEGIFPANYVRVS
Take B4: in assay [2], the binding result is reported as “binds”.

B5: GST-Cdc42(Q61L) (natural protein)
chain: not shown
Take B5: in assay [1], the binding result is listed as “binds”.

B6: GST-Sla1(1–420aa, W41S) (domain or fragment, S. cerevisiae, UniProt P32790 1-420, looked up)
chain: MTVFLGIYRAVYAYEPQTPEELAIQEDDLLYLLQKSDIDDSWTVKKRVIGSDSEEPVGLVPSTYIEEAPVLKKVRAIYDYEQVQNADEELTFHENDVFDVFDDKDADWLLVKSTVSNEFGFIPGNYVEPENGSTSKQEQAPAAAEAPAATPAAAPASAAVLPTNFLPPPQHNDRARMMQSKEDQAPDEDEEGPPPAMPARPTATTETTDATAAAVRSRTRLSYSDNDNDDEEDDYYYNSNSNNVGNHEYNTEYHSWNVTEIEGRKKKKAKLSIGNNKINFIPQKGTPHEWSIDKLVSYDNEKKHMFLEFVDPYRSLELHTGNTTTCEEIMNIIGEYKGASRDPGLREVEMASKSKKRGIVQYDFMAESQDELTIKSGDKVYILDDKKSKDWWMCQLVDSGKSGLVPAQFIEPVRDKKHTE
Turning to B6, the binding result in assay [2] was “binds”.

B7: GST-Sla1(1–420aa, W108S) (domain or fragment, S. cerevisiae, UniProt P32790 1-420, looked up)
chain: MTVFLGIYRAVYAYEPQTPEELAIQEDDLLYLLQKSDIDDWWTVKKRVIGSDSEEPVGLVPSTYIEEAPVLKKVRAIYDYEQVQNADEELTFHENDVFDVFDDKDADSLLVKSTVSNEFGFIPGNYVEPENGSTSKQEQAPAAAEAPAATPAAAPASAAVLPTNFLPPPQHNDRARMMQSKEDQAPDEDEEGPPPAMPARPTATTETTDATAAAVRSRTRLSYSDNDNDDEEDDYYYNSNSNNVGNHEYNTEYHSWNVTEIEGRKKKKAKLSIGNNKINFIPQKGTPHEWSIDKLVSYDNEKKHMFLEFVDPYRSLELHTGNTTTCEEIMNIIGEYKGASRDPGLREVEMASKSKKRGIVQYDFMAESQDELTIKSGDKVYILDDKKSKDWWMCQLVDSGKSGLVPAQFIEPVRDKKHTE
B7: the binding result in assay [2] was “binds”.
